Measured values from patent publication US20030229005A1 (BIOZYME, published 2003).
*1 amine or outer side, *2 acyl side, *3 side chain or, on linkers, in order; H or OH if unused. Primed or numbered codes have the meaning given here. [ ]: non-standard residue; d: D form. The star is where a group is joined. Dabcyl′ = CN(C)c1ccc(/N=N/c2ccc(C(=O)*)cc2)cc1; Dnp = O=[N+]([O-])c1ccc(*)c([N+](=O)[O-])c1; C(Me) = CSC[C@H](N[*:1])C(=O)[*:2]; fluorescein = fluorescein label

T1: collagenase 1 (UniProt P03956 100-469, limits assumed)
T1 sequence (looked up): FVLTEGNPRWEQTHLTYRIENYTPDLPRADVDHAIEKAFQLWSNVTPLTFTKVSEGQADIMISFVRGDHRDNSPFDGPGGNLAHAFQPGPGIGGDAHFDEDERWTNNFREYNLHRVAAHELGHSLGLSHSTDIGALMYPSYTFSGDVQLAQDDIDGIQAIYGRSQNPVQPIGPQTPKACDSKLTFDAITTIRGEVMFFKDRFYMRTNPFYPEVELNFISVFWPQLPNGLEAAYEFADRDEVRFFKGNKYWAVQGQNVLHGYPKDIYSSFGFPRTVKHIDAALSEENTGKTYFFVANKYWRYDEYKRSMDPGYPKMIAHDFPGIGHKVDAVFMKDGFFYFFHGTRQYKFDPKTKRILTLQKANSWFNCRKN

T2: human Gelatinase-A (human, UniProt P08253 110-660, limits assumed)
T2 sequence (looked up): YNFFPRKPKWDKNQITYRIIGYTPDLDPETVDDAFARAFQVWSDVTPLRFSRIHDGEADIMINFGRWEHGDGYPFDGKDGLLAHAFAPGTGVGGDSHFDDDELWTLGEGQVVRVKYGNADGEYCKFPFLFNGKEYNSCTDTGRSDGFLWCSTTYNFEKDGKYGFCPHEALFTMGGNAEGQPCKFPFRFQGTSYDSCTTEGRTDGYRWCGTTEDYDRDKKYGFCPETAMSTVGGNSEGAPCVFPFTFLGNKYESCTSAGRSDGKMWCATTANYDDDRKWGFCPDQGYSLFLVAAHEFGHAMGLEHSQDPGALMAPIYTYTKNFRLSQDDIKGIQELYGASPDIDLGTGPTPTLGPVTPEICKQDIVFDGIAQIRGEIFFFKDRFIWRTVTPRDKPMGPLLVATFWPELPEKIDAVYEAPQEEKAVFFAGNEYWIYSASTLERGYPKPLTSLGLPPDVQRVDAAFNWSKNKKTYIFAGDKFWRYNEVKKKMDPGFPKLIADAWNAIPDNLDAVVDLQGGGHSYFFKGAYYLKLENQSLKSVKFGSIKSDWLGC

B1: Dnp-VTPYNMRG-NH2 (peptide)
peptide: Dnp-VTPYNMRG-NH2
SMILES: CSCC[C@H](NC(=O)[C@H](CC(N)=O)NC(=O)[C@H](Cc1ccc(O)cc1)NC(=O)[C@@H]1CCCN1C(=O)[C@@H](NC(=O)[C@@H](Nc1ccc([N+](=O)[O-])cc1[N+](=O)[O-])C(C)C)[C@@H](C)O)C(=O)N[C@@H](CCCNC(=N)N)C(=O)NCC(N)=O
B2: Dnp-GPSGIHL-NH2 (peptide)
peptide: Dnp-GPSGIHL-NH2
SMILES: CC[C@H](C)[C@H](NC(=O)CNC(=O)[C@H](CO)NC(=O)[C@@H]1CCCN1C(=O)CNc1ccc([N+](=O)[O-])cc1[N+](=O)[O-])C(=O)N[C@@H](Cc1c[nH]cn1)C(=O)N[C@@H](CC(C)C)C(N)=O
B3: Dnp-GPLPLHGC(Me)-NH2 (peptide)
peptide: Dnp-GPLPLHG[C(Me)]-NH2
SMILES: CSC[C@H](NC(=O)CNC(=O)[C@H](Cc1c[nH]cn1)NC(=O)[C@H](CC(C)C)NC(=O)[C@@H]1CCCN1C(=O)[C@H](CC(C)C)NC(=O)[C@@H]1CCCN1C(=O)CNc1ccc([N+](=O)[O-])cc1[N+](=O)[O-])C(N)=O
B4: Dnp-GPVNLHG-NH2 (peptide)
peptide: Dnp-GPVNLHG-NH2
SMILES: CC(C)C[C@H](NC(=O)[C@H](CC(N)=O)NC(=O)[C@@H](NC(=O)[C@@H]1CCCN1C(=O)CNc1ccc([N+](=O)[O-])cc1[N+](=O)[O-])C(C)C)C(=O)N[C@@H](Cc1c[nH]cn1)C(=O)NCC(N)=O
B5: Dnp-GPYGMRA-NH2 (peptide)
peptide: Dnp-GPYGMRA-NH2
SMILES: CSCC[C@H](NC(=O)CNC(=O)[C@H](Cc1ccc(O)cc1)NC(=O)[C@@H]1CCCN1C(=O)CNc1ccc([N+](=O)[O-])cc1[N+](=O)[O-])C(=O)N[C@@H](CCCNC(=N)N)C(=O)N[C@@H](C)C(N)=O
B6: Dnp-GPLQFRG-NH2 (peptide)
peptide: Dnp-GPLQFRG-NH2
SMILES: CC(C)C[C@H](NC(=O)[C@@H]1CCCN1C(=O)CNc1ccc([N+](=O)[O-])cc1[N+](=O)[O-])C(=O)N[C@@H](CCC(N)=O)C(=O)N[C@@H](Cc1ccccc1)C(=O)N[C@@H](CCCNC(=N)N)C(=O)NCC(N)=O
B7: Dnp-GPKGITS-NH2 (peptide)
peptide: Dnp-GPKGITS-NH2
SMILES: CC[C@H](C)[C@H](NC(=O)CNC(=O)[C@H](CCCCN)NC(=O)[C@@H]1CCCN1C(=O)CNc1ccc([N+](=O)[O-])cc1[N+](=O)[O-])C(=O)N[C@H](C(=O)N[C@@H](CO)C(N)=O)[C@@H](C)O
B8: Dnp-GPSGIHV-NH2 (peptide)
peptide: Dnp-GPSGIHV-NH2
SMILES: CC[C@H](C)[C@H](NC(=O)CNC(=O)[C@H](CO)NC(=O)[C@@H]1CCCN1C(=O)CNc1ccc([N+](=O)[O-])cc1[N+](=O)[O-])C(=O)N[C@@H](Cc1c[nH]cn1)C(=O)N[C@H](C(N)=O)C(C)C
B9: Dnp-GPLSFQG-NH2 (peptide)
peptide: Dnp-GPLSFQG-NH2
SMILES: CC(C)C[C@H](NC(=O)[C@@H]1CCCN1C(=O)CNc1ccc([N+](=O)[O-])cc1[N+](=O)[O-])C(=O)N[C@@H](CO)C(=O)N[C@@H](Cc1ccccc1)C(=O)N[C@@H](CCC(N)=O)C(=O)NCC(N)=O
B10: Dnp-GPLSIQD-NH2 (peptide)
peptide: Dnp-GPLSIQD-NH2
SMILES: CC[C@H](C)[C@H](NC(=O)[C@H](CO)NC(=O)[C@H](CC(C)C)NC(=O)[C@@H]1CCCN1C(=O)CNc1ccc([N+](=O)[O-])cc1[N+](=O)[O-])C(=O)N[C@@H](CCC(N)=O)C(=O)N[C@@H](CC(=O)O)C(N)=O
B11: Dnp-GPHPFRG-NH2 (peptide)
peptide: Dnp-GPHPFRG-NH2
SMILES: N=C(N)NCCC[C@H](NC(=O)[C@H](Cc1ccccc1)NC(=O)[C@@H]1CCCN1C(=O)[C@H](Cc1c[nH]cn1)NC(=O)[C@@H]1CCCN1C(=O)CNc1ccc([N+](=O)[O-])cc1[N+](=O)[O-])C(=O)NCC(N)=O
B12: Dnp-GPKGMRG-NH2 (peptide)
peptide: Dnp-GPKGMRG-NH2
SMILES: CSCC[C@H](NC(=O)CNC(=O)[C@H](CCCCN)NC(=O)[C@@H]1CCCN1C(=O)CNc1ccc([N+](=O)[O-])cc1[N+](=O)[O-])C(=O)N[C@@H](CCCNC(=N)N)C(=O)NCC(N)=O
B13: Dnp-GPLGLHVC(Me)-NH2 (peptide)
peptide: Dnp-GPLGLHV[C(Me)]-NH2
SMILES: CSC[C@H](NC(=O)[C@@H](NC(=O)[C@H](Cc1c[nH]cn1)NC(=O)[C@H](CC(C)C)NC(=O)CNC(=O)[C@H](CC(C)C)NC(=O)[C@@H]1CCCN1C(=O)CNc1ccc([N+](=O)[O-])cc1[N+](=O)[O-])C(C)C)C(N)=O

What follows are binders tested against T1, collagenase 1 (assay: cell-based or functional assay).

In order of falling “Selectivity v. Coll-3” value:
1. B6  3680 unitless
2. B2  3440 unitless
3. B11  3350 unitless
4. B12  1570 unitless
5. B8  1430 unitless
6. B9  688 unitless
7. B7  548 unitless
8. B4  459 unitless
9. B5  212 unitless
10. B13  182 unitless
11. B10  45 unitless
12. B1  39 unitless
13. B3  36 unitless

Each binder was assayed against T3, stromelysin 1 (UniProt P08254 100-477, limits assumed) (assay: cell-based or functional assay).
T3 sequence (P08254 100-477 limits assumed): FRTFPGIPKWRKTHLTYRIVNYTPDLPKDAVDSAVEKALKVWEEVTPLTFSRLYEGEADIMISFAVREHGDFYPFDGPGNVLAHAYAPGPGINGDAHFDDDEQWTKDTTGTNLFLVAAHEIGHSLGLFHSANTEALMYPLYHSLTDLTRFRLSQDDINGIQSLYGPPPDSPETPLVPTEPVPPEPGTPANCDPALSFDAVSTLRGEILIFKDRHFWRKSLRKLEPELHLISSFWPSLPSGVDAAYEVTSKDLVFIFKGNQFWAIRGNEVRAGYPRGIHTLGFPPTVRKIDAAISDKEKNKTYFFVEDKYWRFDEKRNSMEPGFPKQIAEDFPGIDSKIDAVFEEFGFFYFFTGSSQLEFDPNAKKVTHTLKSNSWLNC

In order of falling “Selectivity v. Coll-3” value:
1. B7  37000 unitless
2. B8  35700 unitless
3. B12  13200 unitless
4. B13  12700 unitless
5. B11  2300 unitless
6. B2  2040 unitless
7. B4  1260 unitless
8. B1  1000 unitless
9. B3  986 unitless
10. B6  700 unitless
11. B10  590 unitless
12. B5  404 unitless
13. B9  191 unitless

Each binder was assayed against T4, gelatinase B (UniProt P14780 107-707, limits assumed) (assay: cell-based or functional assay).
T4 sequence (P14780 107-707 limits assumed): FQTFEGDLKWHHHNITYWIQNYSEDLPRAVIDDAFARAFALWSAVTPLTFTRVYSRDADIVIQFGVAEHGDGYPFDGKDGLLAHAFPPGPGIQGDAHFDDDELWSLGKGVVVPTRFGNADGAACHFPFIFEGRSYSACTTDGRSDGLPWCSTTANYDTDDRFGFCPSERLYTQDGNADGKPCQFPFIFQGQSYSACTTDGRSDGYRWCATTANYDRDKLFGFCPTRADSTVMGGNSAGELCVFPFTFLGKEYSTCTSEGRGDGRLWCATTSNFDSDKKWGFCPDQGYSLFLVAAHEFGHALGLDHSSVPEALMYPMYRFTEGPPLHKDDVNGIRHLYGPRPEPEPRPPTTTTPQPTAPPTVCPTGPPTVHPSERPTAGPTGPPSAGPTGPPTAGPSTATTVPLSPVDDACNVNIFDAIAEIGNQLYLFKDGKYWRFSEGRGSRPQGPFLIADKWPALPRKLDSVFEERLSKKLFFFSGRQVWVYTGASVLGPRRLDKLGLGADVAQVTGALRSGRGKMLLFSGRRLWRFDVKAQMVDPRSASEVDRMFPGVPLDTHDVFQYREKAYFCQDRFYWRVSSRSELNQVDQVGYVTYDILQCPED

In order of rising “Selectivity v. Coll-3” value:
1. B7  2 unitless
2. B12  3 unitless
3. B1  4 unitless
4. B9  5 unitless
5. B2  6 unitless
6. B5  6 unitless
7. B10  6 unitless
8. B6  7 unitless
9. B11  8 unitless
10. B3  10 unitless
11. B4  11 unitless
12. B8  17 unitless
13. B13  26 unitless

These binders were tested against T2, human Gelatinase-A (assay: cell-based or functional assay).

In order of falling “Selectivity v. Coll-3” value:
1. B10  65 unitless
2. B6  32 unitless
3. B13  32 unitless
4. B1  31 unitless
5. B4  25 unitless
6. B9  21 unitless
7. B3  20 unitless
8. B11  17 unitless
9. B5  16 unitless
10. B8  10 unitless
11. B2  8 unitless
12. B12  7 unitless
13. B7  6 unitless

Biological target: T1, collagenase 1
Experiment: cell-based or functional assay
Remark: another data set of the same source

For {Dabcyl′}-GPHPFRGC(fluorescein)-NH2 [Dabcyl-GPHPFRGC(Flu)-NH2], the “Selectivity v Col-3” value was 87.8 unitless.

In the case of {Dabcyl′}-GPHPFRGC(fluorescein)-NH2 [Dabcyl-GPHPFRGC(Flu)-NH2], the “Selectivity v Col-3, + Gel” value is reported as 168 unitless.

Biological target: T3, stromelysin 1
Experiment: cell-based or functional assay
Remark: another data set of the same source

For {Dabcyl′}-GPHPFRGC(fluorescein)-NH2 [Dabcyl-GPHPFRGC(Flu)-NH2], the “Selectivity v Col-3” value was 43.9 unitless.

For {Dabcyl′}-GPHPFRGC(fluorescein)-NH2 [Dabcyl-GPHPFRGC(Flu)-NH2], the “Selectivity v Col-3, + Gel” value was 53.8 unitless.

Biological target: T4, gelatinase B
Experiment: cell-based or functional assay
Remark: another data set of the same source

{Dabcyl′}-GPHPFRGC(fluorescein)-NH2 [Dabcyl-GPHPFRGC(Flu)-NH2] was tested, and the “Selectivity v Col-3” value was 2.6 unitless.

In the case of {Dabcyl′}-GPHPFRGC(fluorescein)-NH2 [Dabcyl-GPHPFRGC(Flu)-NH2], the “Selectivity v Col-3, + Gel” value is reported as 11.6 unitless.

Biological target: T2, human Gelatinase-A
Experiment: cell-based or functional assay
Remark: another data set of the same source

In the case of {Dabcyl′}-GPHPFRGC(fluorescein)-NH2 [Dabcyl-GPHPFRGC(Flu)-NH2], the “Selectivity v Col-3” value is reported as 14.8 unitless.
